# Assay results as given in article PMC6307106.
# B1: PDR3 (structured_RNA)
# RNA: GGGAGAGCGGAAGCGUGCUGGGCCUGCUCUUUAAUAAACCCACUUUCGAACAUCAGCGUAUGUCCAUAACCCAGAGGUGAUGGAUCCCCC
# modifications: 2'-F pyrimidines (2'F-U, 2'F-C)
# Assays:
# PDGFRβ (recombinant) = PDGFRβ (recombinant) (UniProt P09619 33-532); assay: SPR
# [1] = target: PDGFRα extracellular domain (Homo sapiens, UniProt P16234 24-524); assay: SPR
# Chain of PDGFRα extracellular domain (P16234 24-524): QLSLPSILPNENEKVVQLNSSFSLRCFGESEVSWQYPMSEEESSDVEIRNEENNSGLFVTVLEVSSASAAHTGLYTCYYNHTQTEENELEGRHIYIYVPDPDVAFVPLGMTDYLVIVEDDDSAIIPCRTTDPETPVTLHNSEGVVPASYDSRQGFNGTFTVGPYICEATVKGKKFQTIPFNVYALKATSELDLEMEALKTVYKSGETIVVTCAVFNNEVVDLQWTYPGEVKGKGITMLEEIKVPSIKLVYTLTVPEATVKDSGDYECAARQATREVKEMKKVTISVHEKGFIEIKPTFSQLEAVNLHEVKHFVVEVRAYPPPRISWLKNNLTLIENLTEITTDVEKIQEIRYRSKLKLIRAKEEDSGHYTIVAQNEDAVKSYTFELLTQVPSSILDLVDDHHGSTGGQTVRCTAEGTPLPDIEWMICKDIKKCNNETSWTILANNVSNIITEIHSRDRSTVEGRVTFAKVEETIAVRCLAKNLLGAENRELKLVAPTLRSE
# Chain of PDGFRβ (recombinant) (P09619 33-532): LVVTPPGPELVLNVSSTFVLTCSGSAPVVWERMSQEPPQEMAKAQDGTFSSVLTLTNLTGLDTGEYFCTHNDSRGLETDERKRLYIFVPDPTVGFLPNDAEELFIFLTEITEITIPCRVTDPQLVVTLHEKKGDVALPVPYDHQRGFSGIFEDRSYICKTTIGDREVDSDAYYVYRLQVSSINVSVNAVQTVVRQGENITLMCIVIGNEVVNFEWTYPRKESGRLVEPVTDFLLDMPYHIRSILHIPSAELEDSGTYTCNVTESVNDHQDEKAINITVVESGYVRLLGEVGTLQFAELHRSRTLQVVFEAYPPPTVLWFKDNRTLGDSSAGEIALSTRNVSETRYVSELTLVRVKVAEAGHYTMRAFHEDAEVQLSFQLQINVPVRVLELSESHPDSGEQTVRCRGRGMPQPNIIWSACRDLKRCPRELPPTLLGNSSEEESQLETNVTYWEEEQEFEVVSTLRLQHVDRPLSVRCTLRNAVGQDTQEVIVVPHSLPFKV
binder,measurement,setting,value
B1,binding result,PDGFRβ (recombinant),no binding
same,Kd,[1],250 pM
